B1: library; numbered along this chain (parent)
chain: MAAAAAAAAEQQSSNGPVKKSMREKAVERRSVNKEHNSNFKAGYIPIDEDRLHKTGLRGRKGNLAICVIILLFILAVINLIITLVIWAVIRIGPNGCDSMEFHESGLLRFKQVSDMGVIHPLYKSTVGGRRNENLVITGNNQPIVFQQGTTKLSVENNKTSITSDIGMQFFDPRTQNILFSTDYETHEFHLPSGVKSLNVQKASTERITSNATSDLNIKVDGRAIVRGNEGVFIMGKTIEFHMGGNMELKAENSIILNGSVMVSTTRLPSSSSGDQLGSGDWVRYKLCMCADGTLFKVQVTSQNMGCQISDNPCGNTH

Variants of: B1
Assay: SGCB cell-surface expression functional score (HA stain, bin4 vs bin1, normalised to synonymous) (log10 ratio); higher = more cell-surface SGCB (functional)
Procedure, shortened: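 HEK293 cells stably expressing alpha-, gamma- and delta-sarcoglycan received codon-saturation libraries of HA-tagged, YFP-fused human beta-sarcoglycan by lentiviral transduction at MOI <0.1, performed in duplicate. Cells positive for YFP were sorted after 72 hours and cultured for 5–7 days, then stained on ice with Alexa Fluor 647 anti-HA and fixed. Fixed cells were sorted into four 5% intensity bins and amplicon-sequenced, and the log ratio of highest-bin to lowest-bin variant frequency, as a median over codons and transductions, gives the functional score. Per section, synonymous variants were scaled to mean 0, SD 0.5.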

| Variant | SGCB cell-surface expression functional score (log10) |
| --- | --- |
| D183V | -0.86 |
| M116H | -1.7 |
| V232G | -0.27 |
| Q112T | -0.79 |
| N229W | 0 |
| P313Y | -0.27 |
| R23C | 0.49 |
| M305H | -0.9 |
| G280P | 0.06 |
| R58D | 0.21 |
| L75F | 0.18 |
| F110G | -1.18 |
| T265G | 0.47 |
| T238C | 0.64 |
| N79T | -0.23 |
| V27I | 0.03 |
| S154H | -0.24 |
| N211R | -0.82 |
| P192R | -1.04 |
| E104R | 0.26 |
| D183P | -1.43 |

| Variant | SGCB cell-surface expression functional score (log10) |
| --- | --- |
| I256P | -0.12 |
| Q112K | -0.1 |
| Y184I | -1.85 |
| T238A | 0.6 |
| F73H | 0.54 |
| E240M | 1.09 |
| T213F | -0.31 |
| Q147R | -0.06 |
| R130I | 0.29 |
| G16T | -0.27 |
| A88I | 0.06 |
| L216D | -2.69 |
| S264L | 0.68 |
| R223H | 0.2 |
| C307N | -0.37 |
| G128C | -0.21 |
| S13Y | 0.05 |
| K286S | -1.02 |
| H242M | 0.2 |
| W282Y | -0.08 |
| N140T | -0.19 |

| Variant | SGCB cell-surface expression functional score (log10) |
| --- | --- |
| T301M | 0.86 |
| T209W | -0.85 |
| D115T | -1.39 |
| R174G | -0.63 |
| D221H | 0.75 |
| T182W | -1.65 |
| S125W | -0.51 |
| Q169K | 0 |
| K196T | -0.64 |
| L249M | -0.1 |
| T151H | -1.24 |
| D275C | -0.13 |
| T301V | -0.21 |
| L257Y | 0.3 |
| G280T | -0.11 |
| E240A | 0.93 |
| V145I | 0.52 |
| V27E | 0.04 |
| A5H | 0.12 |
| V77I | -0.12 |
| L84E | 0.26 |

| Variant | SGCB cell-surface expression functional score (log10) |
| --- | --- |
| M116I | -1.03 |
| I45A | 0.33 |
| G59C | 0.05 |
| H103Y | -0.3 |
| S21Y | -0.19 |
| K219Q | 0.3 |
| A2Y | 0.14 |
| N132R | -0.38 |
| Q148E | -0.58 |
| F110T | -1.1 |
| V220L | 0.84 |
| Q276T | -1.1 |
| T126F | 0.32 |
| T83Q | 0.46 |
| E49D | 0.02 |
| S302I | 0.38 |
| N95I | -0.83 |
| A26N | -0.24 |
| I162T | -1.07 |
| K196H | 1.37 |

Source: the supplement of paper PMC10266784
